Measurements reported in the nanobody polyreactivity screen of Harvey et al. (2022).

assay: yeast display, Sf9 membrane polyspecificity reagent, FACS + sequencing; frameworks hold sequencing errors
Procedure, shortened: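 Using colony PCR, genes from sorted yeast display clones were amplified, then sequenced on MiSeq at 2 × 250 and filtered by CDR length. The clones had been stained with 10% biotinylated, detergent-solubilized Sf9 membrane reagent for 1 hour at 4 °C and sorted by FACS into low and high (top ~1%) gates on anti-HA and streptavidin fluorescence. Polyreactivity labels come from the gate of origin.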

Row | Sequence | polyreactivity (PSR sort gate)
1 | QVQLVESGGGLVQAGGSLRLSCAASGRIFGRYAMGWYRQAPGKERELVAAISSSGGTTYYADSVKGRFTISRDKAKNTVYLQMNSLKPEDTAVYYCAKRGYYYGYDYWGQGTQVTVSS | high polyreactivity
2 | QVQLVESGGGLVQAGGSLRLSCAASGRIFGRYAMGWYRQAPGKERELVASITRRGGSTYYADSVKGRFTISRDNAKNTVYLQMNSLKPEDTAVYYCAAGGFSWEGDSWGQGTEVTVSS | high polyreactivity
3 | QVQLVESGGGLVQAGGSLRLSCAASGRIFGRYAMGWYRQAPGKERELVAVISARGARTYYADSVKGRFTISRDNAKNTVYLQMNSLKPEDTAVYYCAVDQYATDDYWGQGTQVTVSS | high polyreactivity
4 | QVQLVESGGGLVQAGGSLRLSCAASGRIFGRYAMGWYRQEPGKERELVASISWSGDSTYYADSVKGRFTISRDNAKNTVYLQMNSLKPEDTAVYYCNADPFIRTWYNYGYWGQGTQVTVSS | low polyreactivity
5 | QVQLVESGGGLVQAGGSLRLSCAASGRIFGRYVMGWYRQAPGKERELVAAITSRDDSTYYADSVKGRFTISRDNAKNTVYLQMTSLKPEDTAVYYCAATWGRGYDYWGQGTQVTVSS | high polyreactivity
6 | QVQLVESGGGLVQAGGSLRLSCAASGRIFGSNAMGWYRQAPGKERELVATITKNGTSTYYADSVKGRFTISRDNAKNTVYLQMNSLKPEDTAVYYCARAPLRYSSRYEYWGQGTQVTVSS | low polyreactivity
7 | QVQLVESGGGLVQAGGSLRLSCAASGRIFGSYAMGWYRQAHGKERELVAAIRWSGGSTYYADSVKGRFTISRDNAKNTVYLQMNSLKPEDTAVYYCAKTRTGYCFSYGYWGQGTQVTVSS | high polyreactivity
8 | QVQLVESGGGLVQAGGSLRLSCAASGRIFGSYAMGWYRQAPWKERELVAAINWRGGSTFYADSVKGRFTISRDNAKNTVYLLMNSLKPEDTAVYYCARSGYRQSGDYWGQGTQVTVSS | low polyreactivity
9 | QVQLVESGGGLVQAGGSLRLSCAASGRIFGSYVMGWYRQAPGKEMELVATISWSGGSTYYADSVKGRFTISRDNAKNTVYLQMNSLKPEDTAVYYCAAVSRYSHSPYHYDYWGQGTQVTVSS | high polyreactivity
10 | QVQLVESGGGLVQAGGSLRLSCAASGRIFGSYVMGWYRQAPGKERELVAAISRRGGSTYYADSVKGRFTISRDNAKNTVYLQMNSLKPEDTAVDYCAAEFSPSSNPYDYWGQGTQVTVSS | high polyreactivity
11 | QVQLVESGGGLVQAGGSLRLSCAASGRIFGTNAMGWYRQAPGKERELVAAISRSGGSTYYADSVKGRFTISRDNSKNTVYLQMNSLKPEDTAVYYCATDGRHTYYYWGQGTQVTVSS | high polyreactivity
12 | QVQLVESGGGLVQAGGSLRLSCAASGRIFGTNAMGWYRQAPGKERELVATITRGGGNTYYADSVKGRFTISRDNAKNTVYLQMNSLKPEDTAVYYCAAKFHRFAWYSHYDYWGQGTQVTVSS | low polyreactivity
13 | QVQLVESGGGLVQAGGSLRLSCAASGRIFGTNAMGWYRQAPGKERELVATITRGGGNTYYADSVKGRFTISRDNAKNTVYLQMNSLKPEDTAVYYCAAYDSVQKYWILGFDYWGQGTQVTVSS | low polyreactivity
14 | QVQLVESGGGLVQAGGSLRLSCAASGRIFGTNSIGWYIQAPRKERELVSAISSSTSTNYADSVKGRFTISRDNAKNTVYLLMYSLKRDDTAFYYFDADELRTDWDYAQGYDYWGQGTQVTVSS | low polyreactivity
15 | QVQLVESGGGLVQAGGSLRLSCAASGRIFGTYAMGWYRQAPGKERELVAAITQSGGRTYYADSVKGRFTISRDNAKNTVYLQMNSLKPEDTAVYYCNKVTYRGIGLGYDYWGQGTQVTVSS | high polyreactivity
16 | QVQLVESGGGLVQAGGSLRLSCAASGRIFGVNAMGRYRQAPGKERELVAAIDWSDGSTYYADSVKGRFTISRDNAKNTVYLQMNSLKPEDTAVYYCAALPSFLAAQYGDDYWGQGTQVTVSS | low polyreactivity

Row | Sequence | polyreactivity (PSR sort gate)
17 | QVQLVESGGGLVQAGGSLRLSCAASGRIFGVNAMGWYRQAPGKERELVAAIRYSGGSTYYADSVKGRFTISRDNAKNTVYLQMNSLKPEDTAVYYCAKARYTYSWSFGYWGQGTQVTVSS | low polyreactivity
18 | QVQLVESGGGLVQAGGSLRLSCAASGRIFGVYAMGLYRQAPGKERELVAGITYSGGSTYYADSVKGRFTISRDNAKNTVYLQMNSLKPEDTAVYYCARYHWYYRVSKSDSWGQGTQVTVSS | high polyreactivity
19 | QVQLVESGGGLVQAGGSLRLSCAASGRIFGVYAMGWYRQAPGKEREFVASITRGGGRTYYADSVKGRFTISRDNAKNTVYLQMNSLKPEDTAVYYCNAVVNSYPYYYWGQGTQVTVSS | high polyreactivity
20 | QVQLVESGGGLVQAGGSLRLSCAASGRIFGVYAMGWYRQAPGKERELVAAISEGGGSTNYADSVKGRFSISRDNAKNTVYLQMNSLKPEDTAVYYCAATYRTGVRRYYSWGQGTQVTVSS | low polyreactivity
21 | QVQLVESGGGLVQAGGSLRLSCAASGRIFGVYAMGWYRQAPGKERELVAAITYRGASTYADSVKGRFTISRDNAKNTVYLQMNSLNPEDTAVYYCAAEPGSRSYGGDYWGQGTQVTVSS | high polyreactivity
22 | QVQLVESGGGLVQAGGSLRLSCAASGRIFGWNAMGWYRQAPGKERELVASIRSGGRTNYADSVKGRFTISRDNAKNTVYLQMNSLKPEDTAVYYCAVGPYYQSTQIYDYWGQGTQVTVSS | low polyreactivity
23 | QVQLVESGGGLVQAGGSLRLSCAASGRIFGWNAMGWYRQAPGKERELVATITDGTSTNYADSVKGRFTISRDNAKNTVYLQMYSLKPVDTAVYYCAKRVVTSLYKPDGVKYDYWGQGTQVTVSS | high polyreactivity
24 | QVQLVESGGGLVQAGGSLRLSCAASGRIFGWYAMGGYRQAPGKERELVAAITSGGRTKYADSVKGRLTISRDNAKNTVYLQMNSLKPEDTAVYYCAARPQISSFDGLYYWGQGTQVTVSS | high polyreactivity
25 | QVQLVESGGGLVQAGGSLRLSCAASGRIFGWYAMGWYRQAPGKERELVAAISWSGGSTYADSVKGRFTISRDNAKNTVYLQMNSLKPEDTAVYYCAADVAYVEYDYWGQGTQVTVSS | low polyreactivity
26 | QVQLVESGGGLVQAGGSLRLSCAASGRIFGYAMGWCRQAPRKERELVAAITSSGGRTYYADSVKGRFTISRDNAKNTVYLQMNSLKPEDTAVYYCAKKWPVYRSYDYWGQGTQVTVSS | high polyreactivity
27 | QVQLVESGGGLVQAGGSLRLSCAASGRIFGYNAMGWYRQAPGKERELVAAISSSGGSTYYADSVKGRFTISRDNAKNTVYLQMNSLKPEDTAVYYCAARRVTRTTVYRYQYYYWGQGTQVTVSS | high polyreactivity
28 | QVQLVESGGGLVQAGGSLRLSCAASGRIFGYNAMGWYRQAPGKERELVAAITQSGGTTYYADSVKGRFTISRDYAKNTVYLQMNSLKPEDTAVYYCARGTRYPNNPFDYWGLGTQVTVSS | high polyreactivity
29 | QVQLVESGGGLVQAGGSLRLSCAASGRIFGYNAMGWYRQAPGKERELVAALSWNGGSTYYADSVKGRFTISRDNAKNTVYLQMNSLKPEDTAVYYCNADPSDRRYPHTWTKMGYWGQGTQVTVSS | low polyreactivity
30 | QVQLVESGGGLVQAGGSLRLSCAASGRIFGYNTMGWYRQAPGNERELVATITGAGSTNYADSVKGLFTISRDNAKNTVYLQMNSLKPEDTAVYYCAASVRWPRVSQRARYGYYYWGQGTQVTVSS | high polyreactivity
31 | QVQLVESGGGLVQAGGSLRLSCAASGRIFGYTMGWYRQAPGKERELVAAISKSGGSTYYADSVKGRFTISRDNAKNTVYLQMNSLIPEDTAVYVCNKPQRILYDYWGQGSQVTVSS | high polyreactivity
32 | QVQLVESGGGLVQAGGSLRLSCAASGRIFGYTMGWYRQAPGKERELVAAISKSGGSTYYADSVKGRFTISRDNAKNTVYLQMNSLKPEDTAVYYCNKPQRILYDYWGQGTQVTVSS | high polyreactivity
